Results on two molecules are retold here after patent US20140223606, “COMPOSITIONS AND METHODS COMPRISING SEQUENCES HAVING MEGANUCLEASE ACTIVITY” (PIONEER HI BRED INTERNATIONAL INC, published 2014).

For one data set, the target named is T1, ZM6.22v2(J2) (artificial).
T1 chain: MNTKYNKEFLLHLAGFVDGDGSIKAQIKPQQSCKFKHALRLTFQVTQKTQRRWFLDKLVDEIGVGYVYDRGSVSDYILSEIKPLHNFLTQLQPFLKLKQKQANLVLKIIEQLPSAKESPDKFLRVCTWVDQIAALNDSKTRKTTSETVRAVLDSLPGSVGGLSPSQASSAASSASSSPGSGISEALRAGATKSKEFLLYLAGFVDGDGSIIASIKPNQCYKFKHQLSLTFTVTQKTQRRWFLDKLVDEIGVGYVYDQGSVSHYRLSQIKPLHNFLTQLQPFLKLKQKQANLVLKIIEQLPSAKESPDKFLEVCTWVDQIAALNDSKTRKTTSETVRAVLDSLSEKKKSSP
In words: cell_activity; yeast 37 C; 30 C: 0. As to conditions: tags: NLS, 6xHis. The procedure: A 3 mL culture of selective media (MP Biomedical) was inoculated with a single colony of the yeast screening strain and grown at 30° C. overnight. On the following day, a 50 ml YPD culture (MP Biomedical) was started with 2 ml of the overnight culture and grown at 30° C. overnight. On the following day, the cells were harvested by centrifugation at 4000 rpm. The cells were resuspended in 100 ml ice cold water and centrifuged again. The cells were then washed in 1.2 M sorbitol, followed by treatment with 2 ml of 10 mM Tris pH 8.0, 1 mM EDTA, 100 mM Lithium acetate, 10 mM DTT, 0.6M sorbitol for 30 minutes at 30° C. with shaking. The cells were recovered by centrifugation, washed in 40 ml 1.2M sorbitol and finally resuspended in 250 microliters of 1.2M sorbitol. 50 microliter aliquots were transferred to test tubes on ice. Up to 5 microliters of DNA (100-500 nanograms) were added. The suspension was transferred to a 0.2 cm electroporation cuvette, on ice. Electroporation was performed with a pulse charge at 1.5 kV, 200 ohms, 25 microF (pulse time of 5 milliseconds). 1 mL YPD media (MP Biomedical) was added and the cells were allowed to recover at 30° C. for 1-2 hr. The cells were centrifuged, resuspended in 100 uL 1M sorbitol and plated on selective media lacking leucine and containing 2% galactose. The resulting yeast colonies were incubated at various temperatures ranging from 22 to 37 degrees Celsius for 7-10 days. I-CreI and meganucleases derived from it have maximal activity at or above 37 degrees Celsius. Screening was performed at a range of temperatures from 22 to 37 degrees in order to observe increases in activity at lower temperatures which are relevant to certain biological systems (eg. plant cells, plant cell cultures, etc). At that time the red/white sectoring phenotype, indicative of meganuclease activity was observed. Colonies with increased white sectoring over the parental meganuclease (indicating colonies expressing a meganuclease with increased meganuclease activity), also referred to as “hits” and sometimes completely white, were isolated for further analysis.
A total of 13 ZM6.22v2 variants with increased activity were confirmed in the yeast system (as described in Example 6). Increased activity was observed across a range of temperatures: 28 degrees Celsius, 30 degrees Celsius and 37 degrees Celsius, as shown in Table 16.

Another data set deals with T2, MHP14+(08) (artificial).
T2 chain: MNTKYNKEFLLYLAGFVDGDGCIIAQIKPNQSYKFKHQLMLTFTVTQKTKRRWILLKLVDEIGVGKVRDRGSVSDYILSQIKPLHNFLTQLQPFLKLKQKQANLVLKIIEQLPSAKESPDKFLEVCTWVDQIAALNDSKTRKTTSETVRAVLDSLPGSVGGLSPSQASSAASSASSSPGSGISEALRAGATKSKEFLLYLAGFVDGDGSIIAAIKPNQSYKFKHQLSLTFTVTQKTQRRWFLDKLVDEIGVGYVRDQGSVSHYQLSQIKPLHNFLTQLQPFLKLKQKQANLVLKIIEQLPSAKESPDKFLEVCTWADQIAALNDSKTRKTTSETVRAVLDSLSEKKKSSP
The data set can be described thus: cell_activity; maize; yeast 37 C: 4. Conditions: tags: SV40 NLS.

Another data set has as its target T3, MHP14+(12) (artificial).
T3 chain: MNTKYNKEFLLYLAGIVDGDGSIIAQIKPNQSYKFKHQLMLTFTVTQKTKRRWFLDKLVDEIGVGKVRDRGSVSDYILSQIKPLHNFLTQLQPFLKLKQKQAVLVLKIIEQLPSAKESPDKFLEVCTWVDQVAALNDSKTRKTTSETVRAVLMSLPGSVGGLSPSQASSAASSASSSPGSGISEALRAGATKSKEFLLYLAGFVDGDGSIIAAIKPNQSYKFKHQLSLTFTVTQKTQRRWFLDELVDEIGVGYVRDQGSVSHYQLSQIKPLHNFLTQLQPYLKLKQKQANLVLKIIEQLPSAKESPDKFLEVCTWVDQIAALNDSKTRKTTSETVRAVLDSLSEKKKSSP
In words: cell_activity; maize; yeast 37 C: 4. Conditions: tags: SV40 NLS.

Another data set has as its target T4, MHP14+(06) (artificial).
T4 chain: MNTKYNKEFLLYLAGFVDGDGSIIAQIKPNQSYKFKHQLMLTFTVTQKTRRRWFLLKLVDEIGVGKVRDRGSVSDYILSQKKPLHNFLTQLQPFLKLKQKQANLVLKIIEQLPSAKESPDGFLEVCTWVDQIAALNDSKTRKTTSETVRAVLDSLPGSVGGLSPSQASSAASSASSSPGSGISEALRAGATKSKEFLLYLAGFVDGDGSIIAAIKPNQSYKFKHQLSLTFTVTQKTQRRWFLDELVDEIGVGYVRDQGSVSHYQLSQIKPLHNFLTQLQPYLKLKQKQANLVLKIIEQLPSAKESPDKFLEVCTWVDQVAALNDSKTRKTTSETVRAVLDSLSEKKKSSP
In words: cell_activity; maize; yeast 37 C: 4. As to conditions: tags: SV40 NLS.

A further data set concerns the target T5, MHP14+(14) (artificial).
T5 chain: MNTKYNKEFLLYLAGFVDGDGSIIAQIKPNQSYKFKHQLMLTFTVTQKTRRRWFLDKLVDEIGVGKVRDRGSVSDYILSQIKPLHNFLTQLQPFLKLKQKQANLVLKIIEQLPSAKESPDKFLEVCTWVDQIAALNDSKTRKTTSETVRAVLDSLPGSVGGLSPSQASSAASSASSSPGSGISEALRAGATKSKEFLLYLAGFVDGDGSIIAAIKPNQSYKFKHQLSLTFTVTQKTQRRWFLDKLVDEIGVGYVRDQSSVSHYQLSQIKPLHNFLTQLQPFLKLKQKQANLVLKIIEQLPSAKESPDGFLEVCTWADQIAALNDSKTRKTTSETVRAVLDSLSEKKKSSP
The data set can be described thus: cell_activity; maize; yeast 37 C: 4. As to conditions: tags: SV40 NLS.

B1: ZM6.22v2 recognition site (dsDNA)
DNA 1: ATTGCTCTCTCACATACTTTTA
DNA 2: TAAAAGTATGTGAGAGAGCAAT
In the data set with ZM6.22v2(J2), B1 gave an activity of 2 score 0-4.

B2: MHP14 recognition site (dsDNA)
DNA 1: CAAACAGATTCACGTCAGATTT
DNA 2: AAATCTGACGTGAATCTGTTTG
As to B2, the activity with MHP14+(08) is 25 % target site mutation rate; with MHP14+(12), 47 % target site mutation rate; with MHP14+(06), 7 % target site mutation rate; with MHP14+(14), 39 % target site mutation rate.
